Source: patent US20250326841A1

Tests used:
[1] = biological target: mouse TIM-3, membrane bound (mouse) (UniProt Q8VIM0); assay: binding to activated mouse T cells; method not described
[2] = biological target: mouse TIM-3, membrane bound (mouse) (UniProt Q8VIM0); assay: binding to activated mouse T cells, compared with TIM3.18 binding to human TIM-3; method not described

mouse TIM-3, membrane bound (mouse), sequence (Q8VIM0 20-281): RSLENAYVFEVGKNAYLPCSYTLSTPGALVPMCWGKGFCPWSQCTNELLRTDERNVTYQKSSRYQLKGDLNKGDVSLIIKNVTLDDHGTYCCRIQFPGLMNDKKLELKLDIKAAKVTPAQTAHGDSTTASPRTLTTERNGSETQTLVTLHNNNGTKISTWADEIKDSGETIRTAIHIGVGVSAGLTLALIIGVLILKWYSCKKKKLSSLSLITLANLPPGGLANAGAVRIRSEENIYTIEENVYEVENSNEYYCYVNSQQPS

- EC50 [1]: 1.7 nM
- fold weaker EC50 than TIM3.18 on human TIM-3 [2]: 17 fold
Substance: RMT3-23, rat anti-mouse TIM-3 antibody (Bio-X-Cell)
